These results are taken from paper PMC10995880 (iScience, 2024).

The target of the assay is His6-PEX19-WT (1–299 aa), non-farnesylated (human, UniProt P40855 1-299). The assay is described as follows: pull-down; His6-PEX19 pull-down of Flag-PEX3ΔN variants at the same concentrations of PEX19 and PEX3 as in the PEX26^Bpa crosslinking experiments (400 nM). The note with it: both partners purified.
Sequence of His6-PEX19-WT (1–299 aa), non-farnesylated (P40855 whole entry, the tested form may be a part): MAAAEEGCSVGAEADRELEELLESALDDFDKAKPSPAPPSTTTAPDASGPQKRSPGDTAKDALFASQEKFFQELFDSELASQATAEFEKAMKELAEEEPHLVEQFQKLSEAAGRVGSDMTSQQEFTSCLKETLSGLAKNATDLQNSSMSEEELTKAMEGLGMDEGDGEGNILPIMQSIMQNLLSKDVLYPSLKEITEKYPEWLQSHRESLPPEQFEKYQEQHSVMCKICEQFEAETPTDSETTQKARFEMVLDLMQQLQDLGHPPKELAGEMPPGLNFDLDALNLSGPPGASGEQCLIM

B1: Flag-PEX3ΔN-G138E (domain or fragment, UniProt P56589 41-373, looked up)
chain: QEREAAEYIAQARRQYHFESNQRTCNMTVLSMLPTLREALMQQLNSESLTALLKNRPSNKLEIWEDLKIISFTRSTVAVYSTCMLVVLLRVQLNIIGEYIYLDNAAVGKNGTTILAPPDVQQQYLSSIQHLLGDGLTELITVIKQAVQKVLGSVSLKHSLSLLDLEQKLKEIRNLVEQHKSSSWINKDGSKPLLCHYMMPDEETPLAVQACGLSPRDITTIKLLNETRDMLESPDFSTVLNTCLNRGFSRLLDNMAEFFRPTEQDLQHGNSMNSLSSVSLPLAKIIPIVNGQIHSVCSETPSHFVQDLLTMEQVKDFAANVYEAFSTPQQLEK
As to B1, the binding result is “binds”.

B2: Flag-PEX3ΔN-M72K (domain or fragment, UniProt P56589 41-373, looked up)
chain: QEREAAEYIAQARRQYHFESNQRTCNMTVLSKLPTLREALMQQLNSESLTALLKNRPSNKLEIWEDLKIISFTRSTVAVYSTCMLVVLLRVQLNIIGGYIYLDNAAVGKNGTTILAPPDVQQQYLSSIQHLLGDGLTELITVIKQAVQKVLGSVSLKHSLSLLDLEQKLKEIRNLVEQHKSSSWINKDGSKPLLCHYMMPDEETPLAVQACGLSPRDITTIKLLNETRDMLESPDFSTVLNTCLNRGFSRLLDNMAEFFRPTEQDLQHGNSMNSLSSVSLPLAKIIPIVNGQIHSVCSETPSHFVQDLLTMEQVKDFAANVYEAFSTPQQLEK
Turning to B2, the binding result was “binds”.
